Results as given in US7572612B2, “Method of production of para-hydroxycinnamic acid using a thermostable TAL enzyme” (E.I. du Pont de Nemours and Company, priority 2006, dated 2009).

Key:
[1] = Kinetic parameters of the PcTAL enzyme for tyrosine; type: biochemical; conditions: from kcat/KM, 45° C., 100 mM CAPS pH 9.5
Protocol: The kinetic parameters of the PcTAL enzyme for tyrosine and phenylalanine were determined at 45° C., in 100 mM CAPS, pH 9.5 buffer. The increase of TAL and PAL activities with increasing substrate concentrations followed the typical Michaelis-Menton equation. The kcat of the enzyme was 1.3 S^−1 for tyrosine, and 3.3 S^−1 for phenylalanine. The KM was 44 μM for tyrosine and 161 μM for phenylalanine. The kcat/KM value was slightly higher for tyrosine (3.0 M^−1 S^−1) than for phenylalanine (2.1 M^−1 S^−1), indicating the enzyme's slight preference for tyrosine (PAL/TAL ratio of 0.7). […] The substrate specificity of the PcTAL enzyme is therefore similar to other known fungal PAL/TAL enzymes, such as that from R. glutinis, with dual specificity for tyrosine and phenylalanine.

[2] = Conversion of tyrosine to pHCA in 3 L Applikon BioReactors; type: cell-based, E. coli
Protocol: The following experiment was performed in an Applikon BioReactor (9.0 liter working volume) where pH and temperature of the reaction were controlled. Both strains DPD5154 and DPD5124 were tested. The E. coli DPD5154 (PcTAL) cells were produced by the protocol described in Example 6, with a final cell density of […]. In the case of E. coli DPD5124 (RgTAL) the inoculum was grown in a 2.0 L shake flask containing 500 ml of the following medium (in grams per liter) KH2PO4 (2.0 g/L), K2HPO4 (13.0 g/L), (NH4)2HPO4 […]), MgSO4.7H2O (1.0 g/L), yeast extract (2.0 g/L), Ferric Ammonium Citrate (0.1 g/L). The pH was adjusted to 7.0 and the medium steam sterilized. Glucose (30.0 g/L) and ampicillin (50 mg/L) were added post-sterilization. The culture was grown in 2 L flasks with 500 mL medium, at 35° C. to about OD550 of 2.0 and then the entire contents was used to inoculate the fermentor. The fermentor was controlled at 36° C., pH 6.8, with the dissolved oxygen (DO) tension of 25% controlled with cascade of agitation and air flow with agitation from 400 to 1000 rpm and airflow from 2 to 16 SLPM. The overhead pressure was 0.5. When the glucose level reached below 4.0 g/L a glucose feed program with 60% glucose (w/w) was initiated, consisting of: first 4 h at 0.36 g/min, next 12 h at 0.73 g/min and to the end of run at 0.56 g/min. When the culture reached an OD550 of 35, arabinose was added to final concentration of 0.5 g/L The fermentation was terminated 20 h after arabinose addition. The final cell density in the fermentation broth was an OD550 of 90 and the final volume was about 9 liter. The g dcw/L was determined assuming that 1.0 OD550 contained 0.33 g dcw/L:=30 g dcw/L.
The cells were harvested by centrifugation and stored as a frozen paste at −80° C. until use. Before use, the cell paste was thawed and suspended in the saline solution to about 10% w/v. The cell dry weight concentration was calculated from [cells wet weight]×[% solids] where [% solids] was determined after drying the cells in a vacuum oven, at 90° C. for >16 h.
The tyrosine used was AR grade (J. T. Baker). It was suspended in distilled, deionized water at 33% w/w concentration, homogenized in a blender and added to about 50 g/L final concentration. Reactions were conducted in 3 L Applikon BioReactors (Applikon, De Brauwweg 13, The Netherlands), with a 1-2 L working volume. The set points for the control systems were pH 9.9 with automatic addition of NaOH 25% w/v with agitation at 400 rpm. The bioconversion was typically done by adding the tyrosine suspension to the appropriate concentration, adjusting the pH and temperature to the determined set point, adding the cell suspension to the appropriate concentration, and DI water to the final volume.

[3] = 30 C., cell conc 6 g/L, reaction time 19 h
[4] = 35 C., cell conc 6 g/L, reaction time 15 h
[5] = 40 C., cell conc 6 g/L, reaction time 7 h
[6] = 43 C., cell conc 6 g/L, reaction time 6 h
[7] = 45 C., cell conc 2 g/L, reaction time 19 h
[8] = 45 C., cell conc 4 g/L, reaction time 10 h
[9] = 45 C., cell conc 6 g/L, reaction time 6 h
[10] = 48 C., cell conc 6 g/L, reaction time 6 h

B1: PcTAL: thermostable tyrosine ammonia lyase (PAL/TAL) enzyme from Phanerochaete chrysosporium, SEQ ID NO:1 (protein, listed as Phanerochaete chrysosporium)
chain: MPSRIDYYTSSGNGYAQSRKSSAIYPASASTGHAAPSTERKPELLDKFVEAYDELQSYREGKPVIVDGHNLSIPAVAATARFGAAVVLDENPETHERVLQSRRVIVDKVSTQRSVYGVSTGFGGSADTRTSDPLQLGHALLQHQHVGVLPTQTESPLPALPLGDPLATTSMPEAWVRGAILIRMNSLIRGHSGVRWELIEKMGELLRENITPLVPLRGSISASGDLSPLSYIAGTLIGSPAIRVFDGPASYGARRILPSNIALANHGVAPIPLSSKEHLGILNGTAFSASVGALALNEAVHLSLLAQVCTAMGTEAMIGAVGSFDAFIHDTARPHPGQVEVARNVRTLLEDSQMAVKAEDEVHIAEDEGELRQDRYPLRTAAQFLGPQIEDILSAHETVTLECNSTTDNPLIDGETGTVHHGGNFQAMAVTNAMEKTRLAIHHIGKLLFAQATELINPMMNRGLPPNLAATDPSHNYFAKGVDIHLAAYVGELGFLASPVSSHIQSAEMHNQAVNSLALVSARYTISALDVLSLLTAAYLYVLCQALDLRAMHNDLQSSLSAIVRELLPKHFPSAAKRADALLPILERTIFRALNSSSSADCKARMVSVAASTTTPLVDFLSADAALASELANITAFRTELATRAADALTTLRTQYLEGARGAAPASKYLGKTRPVYEFVRVTLNVPMHGRENLHNFEMGPGVEDGIIGNNISTIYEAIRDGKMQNVVMQLVKSIKA
In the case of B1, the PAL/TAL ratio [1] is reported as 0.7, the “Prod g/L-h” value [2, 3] is reported as 2.20 g/L-h and the Prod g/g-h [2, 3] is reported as 0.37 g/g-h. The “Prod g/L-h” value [2, 4] was 2.79 g/L-h, the Prod g/g-h [2, 4] was 0.46 g/g-h and the “Prod g/L-h” value [2, 5] was 5.94 g/L-h. For the same molecule, the Prod g/g-h [2, 5] was 0.99 g/g-h, the “Prod g/L-h” value [2, 6] was 6.90 g/L-h and the Prod g/g-h [2, 6] was 1.15 g/g-h. For the same molecule, the “Prod g/L-h” value [2, 7] was 2.22 g/L-h, the Prod g/g-h [2, 7] was 1.11 g/g-h and the “Prod g/L-h” value [2, 8] was 4.18 g/L-h. For the same molecule, the Prod g/g-h [2, 8] was 1.05 g/g-h, the “Prod g/L-h” value [2, 9] was 6.83 g/L-h and the Prod g/g-h [2, 9] was 1.14 g/g-h. The “Prod g/L-h” value [2, 10] was 7.00 g/L-h and the Prod g/g-h [2, 10] was 1.17 g/g-h.
